Results: patent US20120219551A1 (MacroGenics, published 2012)
Residue numbers refer to the chain shown, from its start. In names and notes the source's numbering stands.

Assays:
CD32A (131H) = biological target: T1, CD32A (131H) (human, UniProt P12318 34-217); assay: off-rate ratio vs wild-type Fc (BIAcore per the filing's koff tables)
T1 construct: extracellular domain; Soluble dimeric fusion as told for the ch4D5 BIAcore assays of section 7.7; also called FcγRIIA 131H; not shown: hinge-CH2-CH3 domain of human IgG2
T1 sequence (looked up): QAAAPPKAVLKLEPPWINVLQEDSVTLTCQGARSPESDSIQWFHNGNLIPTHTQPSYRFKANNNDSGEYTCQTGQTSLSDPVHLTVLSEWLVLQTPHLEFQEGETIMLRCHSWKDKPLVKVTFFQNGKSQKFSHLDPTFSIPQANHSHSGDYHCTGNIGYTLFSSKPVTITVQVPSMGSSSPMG

CD16A (158V) = biological target: T2, CD16A (158V) (human, UniProt P08637 17-208); assay: as above
T2 construct: extracellular domain; Soluble monomeric construct as told for the ch4D5 BIAcore assays of section 7.7; also called FcγRIIIA 158V; FcγRIIIA V158
T2 sequence (P08637 17-208 F176V): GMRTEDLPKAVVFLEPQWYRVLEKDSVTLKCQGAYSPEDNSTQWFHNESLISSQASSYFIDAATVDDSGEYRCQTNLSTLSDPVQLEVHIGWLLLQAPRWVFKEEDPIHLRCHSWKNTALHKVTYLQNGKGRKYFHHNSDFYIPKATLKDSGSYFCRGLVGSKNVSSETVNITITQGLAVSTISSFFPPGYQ

CD16A (158F) = biological target: T3, CD16A (158F) (human, UniProt P08637 17-208); assay: as above
T3 construct: extracellular domain; Soluble monomeric construct as told for the ch4D5 BIAcore assays of section 7.7
T3 sequence (P08637 17-208): as the sequence (P08637 17-208 F176V) above, with V160F counted along it

CD32A (131R) = biological target: T4, CD32A (131R) (human, UniProt P12318 34-217); assay: as above
T4 construct: extracellular domain; Soluble dimeric fusion as told for FcγRIIA in section 7.7 (there for 131H); also called FcγRIIA 131R; not shown: hinge-CH2-CH3 domain of human IgG2
T4 sequence (looked up): T1 sequence (looked up) with H134R

CD32B = biological target: T5, CD32B (human, UniProt P31994 43-217); assay: as above
T5 construct: extracellular domain; Soluble dimeric fusion as told for the ch4D5 BIAcore assays of section 7.7; also called FcγRIIB; FcγRII-B; not shown: hinge-CH2-CH3 domain of human IgG2
T5 sequence (looked up): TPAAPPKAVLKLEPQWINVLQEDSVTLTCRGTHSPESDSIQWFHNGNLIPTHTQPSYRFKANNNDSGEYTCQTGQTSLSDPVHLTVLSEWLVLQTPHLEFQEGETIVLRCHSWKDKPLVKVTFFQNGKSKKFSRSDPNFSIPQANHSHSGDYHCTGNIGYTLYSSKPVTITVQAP

CD32B-G2Ag = biological target: T6, CD32B-G2Ag (human, UniProt P31994 43-217); assay: relative off-rate wt/variant; method not given (BIAcore elsewhere)
T6 construct: extracellular domain; Soluble dimeric protein as told for Section 7.7; also called FcγRIIB-Fc fusion protein; 2bFcagl; not shown: human IgG2 hinge-CH2-CH3 domain
T6 sequence (looked up): T5 sequence (looked up)

CD16A(F158) = biological target: T7, CD16A(F158) (human, UniProt P08637 17-208); assay: as above
T7 construct: extracellular domain; Construct as told for the BIAcore assays of Section 7.7; also called 3aF158
T7 sequence (P08637 17-208): as the sequence (P08637 17-208 F176V) above, with V160F counted along it

CD16A(V158) = biological target: T8, CD16A(V158) (human, UniProt P08637 17-208); assay: as above
T8 construct: extracellular domain; Construct as told for the BIAcore assays of Section 7.7; also called FcγRIIIA 158V; 3aV158
T8 sequence (P08637 17-208 F176V): as the sequence (P08637 17-208 F176V) above

CD32A-G2Ag = biological target: T9, CD32A-G2Ag (human, UniProt P12318 34-217); assay: as above
T9 construct: extracellular domain; Soluble dimeric protein as told for Section 7.7 (there 131H); also called FcγRIIA-Fc fusion protein; 2aFcagl; not shown: human IgG2 hinge-CH2-CH3 domain
T9 sequence (looked up): T1 sequence (looked up)

[1] = biological target: T10, FcγRIIIA, soluble monomeric protein (extracellular region joined to the linker-AVITAG sequence) (human, UniProt P08637 17-208); assay: ELISA
T10 construct: extracellular domain; also called FcRIIIA; FcR3A
T10 sequence (P08637 17-208 F176V limits assumed, form in doubt): as the sequence (P08637 17-208 F176V) above

[2] = biological target: T10, FcγRIIIA, soluble monomeric protein …; assay: ELISA; remark: listed apart in the source
[3] = biological target: T11, soluble dimeric FcγRIIB-Fc fusion protein (extracellular domain of FcγRIIB fused to hinge-CH2-CH3 of human … (human, UniProt P31994 43-217)); assay: SPR (BIAcore), Fc mutant in ch4-4-20, off rate relative to wild type
T11 construct: extracellular domain; also called FcRIIB-Fc; 2bfcagl; not shown: human IgG2 hinge-CH2-CH3
T11 sequence (looked up): T5 sequence (looked up)

B1: ch4D5-FcMT2 (antibody, human IgG1, kappa)
heavy: QVQLQQSGPELVKPGASLKLSCTASGFNIKDTYIHWVKQRPEQGLEWIGRIYPTNGYTRYDPKFQDKATITADTSSNTAYLQVSRLTSEDTAVYYCSRWGGDGFYAMDYWGQGASVTVSSASTKGPSVFPLAPSSKSTSGGTAALGCLVKDYFPEPVTVSWNSGALTSGVHTFPAVLQSSGLYSLSSVVTVPSSSLGTQTYICNVNHKPSNTKVDKRVEPKSCDKTHTCPPCPAPELVGGPSVFLLPPKPKDTLMISRTPEVTCVVVDVSHEDPEVKFNWYVDGVEVHNAKTKPPEEQYNSTLRVVSVLTVLHQDWLNGKEYKCKVSNKALPAPIEKTISKAKGQPREPQVYTLPPSRDELTKNQVSLTCLVKGFYPSDIAVEWESNGQPENNYKTTPLVLDSDGSFFLYSKLTVDKSRWQQGNVFSCSVMHEALHNHYTQKSLSLSPGK
light: DIVMTQSHKFMSTSVGDRVSITCKASQDVNTAVAWYQQKPGHSPKLLIYSASFRYTGVPDRFTGSRSGTDFTFTISSVQAEDLAVYYCQQHYTTPPTFGGGTKVEIKRTVAAPSVFIFPPSDEQLKSGTASVVCLLNNFYPREAKVQWKVDNALQSGNSQESVTEQDSKDSTYSLSSTLTLSKADYEKHKVYACEVTHQGLSSPVTKSFNRGEC
notes: Anti-Her2/neu; also called ch45D4-FcMT2; L235V F243L R292P Y300L P396L
Wild-Type Koff/Mutant Koff (CD32A (131H)): 1.3
Wild-Type Koff/Mutant Koff (CD16A (158V)): 6.1
Wild-Type Koff/Mutant Koff (CD16A (158F)): 4.8
Wild-Type Koff/Mutant Koff (CD32A (131R)): 0.4
Wild-Type Koff/Mutant Koff (CD32B): 0.4

B2: ch4D5 Fc variant L235P, F243L, R292P, Y300L, P396L (antibody)
heavy: B1 heavy with V238P
light: B1 light
notes: One of the series of variants of ch4D5-FcMT2
Wild-Type Koff/Mutant Koff (CD32A (131H)): 0.7
Wild-Type Koff/Mutant Koff (CD16A (158F)): 2.5
Wild-Type Koff/Mutant Koff (CD32A (131R)): 0.2
Wild-Type Koff/Mutant Koff (CD32B): 0.2

B3: ch4D5 Fc variant L235T, F243L, R292P, Y300L, P396L (antibody)
heavy: B1 heavy with V238T
light: B1 light
notes: as for B2
Wild-Type Koff/Mutant Koff (CD32A (131H)): 0.9
Wild-Type Koff/Mutant Koff (CD16A (158V)): 4.2
Wild-Type Koff/Mutant Koff (CD16A (158F)): 2.8
Wild-Type Koff/Mutant Koff (CD32A (131R)): 0.3
Wild-Type Koff/Mutant Koff (CD32B): 0.3

B4: ch4D5 Fc Variants 19 and 20 (L235V, F243L, R292P, Y300L, P396L) (antibody)
heavy: B1 heavy
light: B1 light
notes: copies: 2 + 2
Koff ratio (wt/mut) (CD32B-G2Ag): 0.5 wt/mut
Koff ratio (wt/mut) (CD16A(F158)): 4.5 wt/mut
Koff ratio (wt/mut) (CD16A(V158)): 5.3 wt/mut
Koff ratio (wt/mut) (CD32A-G2Ag): 1.3 wt/mut

B5: Antibody 2B6 3.5 Fc Variant 49 (F243L, R292P, Y300L, V305I, P396L) (antibody)
heavy: QVQLVQSGAEVKKPGASVKVSCKASGYTFTNYWIHWVRQAPGQGLEWIGVIDPSDTYPNYNKKFKGRVTMTVDTSTSTAYMELRSLRSDDTAVYYCARNGDSDYYSGMDYWGQGTTVTVSSASTKGPSVFPLAPSSKSTSGGTAALGCLVKDYFPEPVTVSWNSGALTSGVHTFPAVLQSSGLYSLSSVVTVPSSSLGTQTYICNVNHKPSNTKVDKRVEPKSCDKTHTCPPCPAPELLGGPSVFLLPPKPKDTLMISRTPEVTCVVVDVSHEDPEVKFNWYVDGVEVHNAKTKPPEEQYNSTLRVVSILTVLHQDWLNGKEYKCKVSNKALPAPIEKTISKAKGQPREPQVYTLPPSRDELTKNQVSLTCLVKGFYPSDIAVEWESNGQPENNYKTTPLVLDSDGSFFLYSKLTVDKSRWQQGNVFSCSVMHEALHNHYTQKSLSLSPGK
light: EIVLTQSPDFQSVTPKEKVTFTCRTSQSIGTNIHWYQQKPDQSPKLLIKEVSESISGVPSRFSGSGSGTDFTLTINSLEAEDAATYYCQQSNTWPFTFGGGTKVEIKRTVAAPSVFIFPPSDEQLKSGTASVVCLLNNFYPREAKVQWKVDNALQSGNSQESVTEQDSKDSTYSLSSTLTLSKADYEKHKVYACEVTHQGLSSPVTKSFNRGEC
notes: Fc variant of m46; also called h2B6 3.5 0088; copies: 2 + 2
Koff ratio (wt/mut) (CD32B-G2Ag): 3.2 wt/mut
Koff ratio (wt/mut) (CD16A(F158)): 8.3 wt/mut
Koff ratio (wt/mut) (CD16A(V158)): 10.1 wt/mut
Koff ratio (wt/mut) (CD32A-G2Ag): 1.4 wt/mut

B6: Fc variant K334E, T359N, T366S (antibody)
chain: ASTKGPSVFPLAPSSKSTSGGTAALGCLVKDYFPEPVTVSWNSGALTSGVHTFPAVLQSSGLYSLSSVVTVPSSSLGTQTYICNVNHKPSNTKVDKKVEPKSCDKTHTCPPCPAPELLGGPSVFLFPPKPKDTLMISRTPEVTCVVVDVSHEDPEVKFNWYVDGVEVHNAKTKPREEQYNSTYRVVSVLTVLHQDWLNGKEYKCKVSNKALPAPIEETISKAKGQPREPQVYTLPPSRDELNKNQVSLSCLVKGFYPSDIAVEWESNGQPENNYKTTPPVLDSDGSFFLYSKLTVDKSRWQQGNVFSCSVMHEALHNHYTQKSLSLSPGK
ELISA binding, fold vs WT [1]: 1.5 fold
fold change vs WT [2]: 1.5 fold

B7: ch4-4-20 MgFc66 (A330V, V427M) (antibody)
chain 1: not shown
chain 2: DVVMTQTPLSLPVSLGDQASISCRSSQSLVHSNGNTYLRWYLQKPGQSPKVLIYKVSNRFSGVPDRFSGSGSGTDFTLKISRVEAEDLGVYFCSQSTHVPWTFGGGTKLEIKRTVAAPSVFIFPPSDEQLKSGTASVVCLLNNFYPREAKVQWKVDNALQSGNSQESVTEQDSKDSTYSLSSTLTLSKADYEKHKVYACEVTHQGLSSPVTKSFNRGEC
Koff WT/Mut [3]: 0.62
